Measured values: article PMC8865373 (Biochemistry, 2021)
Where no end group is shown, it is not given here. [ ]: non-standard residue; d: D form. pS = N[C@@H](COP(=O)(O)O)C(=O)O

T1: TAZ2 domain (residues 1764–1855) of wild-type mouse CBP (mouse, UniProt P45481 1764-1855)
T1 sequence (looked up): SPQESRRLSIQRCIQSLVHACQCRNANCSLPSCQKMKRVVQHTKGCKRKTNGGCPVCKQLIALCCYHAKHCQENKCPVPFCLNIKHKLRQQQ


Tests used:
[1] = molecular target: T1, TAZ2 domain (residues 1764–1855) of …; assay: NMR titration
[2] = molecular target: T1, TAZ2 domain (residues 1764–1855) of …; assay: NMR titration; remark: listed apart in the source
[3] = molecular target: T1, TAZ2 domain (residues 1764–1855) of …; assay: fluorescence polarisation
[4] = molecular target: T1, TAZ2 domain (residues 1764–1855) of …; assay: fluorescence polarisation; remark: listed apart in the source

Binder	binding result [1]	Kd [3] [µM]	further results
doubly-phosphorylated HPV16 ppE7(1–51) (domain or fragment) MHGDTPTLHEYMLDLQPETTDLYCYEQLND[pS][pS]EEEDEIDGPAGQAEPDRAH	binds		
ppE7(1–51)(L15V) (domain or fragment) MHGDTPTLHEYMLDVQPETTDLYCYEQLND[pS][pS]EEEDEIDGPAGQAEPDRAH	binds		
MHGDTPTLHEYMLDLQPE-NH2 [E7 CR1 peptide (residues 1–18)]		31 ± 2	Kd [2]: 69 µM
HPV16 E7(1–51), unphosphorylated (domain or fragment) MHGDTPTLHEYMLDLQPETTDLYCYEQLNDSSEEEDEIDGPAGQAEPDRAH		0.1 ± 0.01	
E7(1–51) C24A/A50C labeled with Alexa fluor 594, unphosphorylated (domain or fragment) MHGDTPTLHEYMLDLQPETTDLYAYEQLNDSSEEEDEIDGPAGQAEPDRC(Alexa Fluor 594)H			Kd [4]: 0.079 µM
PETTDLYCYEQLND[pS][pS]EEEDEIDGPAGQAEPDRAH (domain or fragment) [doubly-phosphorylated HPV16 ppE7(17–51)]	binds		
ETTDLYCYEQLNDSSEEEDE [E7 CR2 peptide (residues 18–37)]		4.6 ± 0.2	Kd [2]: 3.4 µM
PETTDLYCYEQLNDSSEEEDEIDGPAGQAEPDRAH (domain or fragment) [HPV16 E7(17–51), unphosphorylated]		1.8 ± 0.1	
